Experimental data reported in patent US10124035B2, “DISC-1 pathway activators in the control of neurogenesis” (Massachusetts Institute of Technology, priority 2008, dated 2018).

Key:
[1] = system: TCF reporter in 293T cells; assay: TCF reporter activity in DISC1 knockdown 293T cells with Wnt3a conditional medium; assay type: cell-based; conditions: 16 hours
Procedure: Primary neural stem cells from E14 brains were infected with control or DISC1 shRNA lentiviruses. 48 hours after to transduction, cells were treated with vehicle or SB-216763 (5 μM) for 16 hours and then pulsed with 10 μM BrdU for 2 hours. Shown is percentage of GFP and BrdU double positive cells to total GFP positive cells (n=3, p<0.05). b. […] 1.5 μg of vector or WT-DISC1 was cotransfected with 0.5 μg control or DISC1 shRNA-2, 0.1 μg TCF reporter, and 10 ng pRL-TK vector into 293T cells. 48 hours after transfection, Wnt3a conditional medium with vehicle, SB-216763, or AR-A104418 was added for another 16 hours.
• Mice. Swiss Webster pregnant female mice were purchased from Taconic (Hudson, N.Y.). • Cell Culture. AHPs were kindly provided by Dr. Gage (Lie, D. C. et al. Wnt signaling to regulates adult hippocampal neurogenesis. Nature 437, 1370-5 (2005)) and cultured under conditions described previously (Palmer, T. D., Takahashi, J. & Gage, F. H. The adult rat hippocampus contains primordial neural stem cells. Mol Cell Neurosci 8, 389-404 (1997)). Primary neural progenitors were isolated from E14 mouse embryos and cultured as described previously (Sanada, K. & Tsai, L. H. G protein betagamma subunits and AGS3 control spindle orientation and asymmetric cell fate of cerebral cortical progenitors. Cell 122, 119-31 (2005)). N2a and 293T cells were cultured in DMEM medium containing 10% FBS, L-glutamine, and penicillin/streptomycin. Wnt3a expressing L cells and untransfected L cells were obtained from ATCC (Manassas, Va.). Wnt3a conditional medium was produced according to the ATCC protocol. To induce AHP differentiation, FGF2 was removed from the culture medium and 1 μM retinoic acid/1% FBS was added to the medium for 4 days. • Reagents. Recombinant Wnt3a protein was obtained from Chemicon (Rosemont, Ill.). FGF2 was obtained from PeproTech (Rocky Hill, N.J.). Recombinant GST-GSK3β was obtained from Active Motif (Carlsbad, Calif.). Recombinant GST-β-catenin and GST-axin were obtained from Millipore (Billerica, Mass.). […]

[2] = system: neural progenitors in embryonic mouse brains; assay: In utero electroporation of shRNA into E13 embryonic mouse brains; assay type: in vivo
Text: (§1) • Mice. Swiss Webster pregnant female mice were purchased from Taconic (Hudson, N.Y.). • Cell Culture. AHPs were kindly provided by Dr. Gage (Lie, D. C. et al. Wnt signaling to regulates adult hippocampal neurogenesis. Nature 437, 1370-5 (2005)) and cultured under conditions described previously (Palmer, T. D., Takahashi, J. & Gage, F. H. The adult rat hippocampus contains primordial neural stem cells. Mol Cell Neurosci 8, 389-404 (1997)). Primary neural progenitors were isolated from E14 mouse embryos and cultured as described previously (Sanada, K. & Tsai, L. H. G protein betagamma subunits and AGS3 control spindle orientation and asymmetric cell fate of cerebral cortical progenitors. Cell 122, 119-31 (2005)). N2a and 293T cells were cultured in DMEM medium containing 10% FBS, L-glutamine, and penicillin/streptomycin. Wnt3a expressing L cells and untransfected L cells were obtained from ATCC (Manassas, Va.). Wnt3a conditional medium was produced according to the ATCC protocol. To induce AHP differentiation, FGF2 was removed from the culture medium and 1 μM retinoic acid/1% FBS was added to the medium for 4 days. • Reagents. Recombinant Wnt3a protein was obtained from Chemicon (Rosemont, Ill.). FGF2 was obtained from PeproTech (Rocky Hill, N.J.). Recombinant GST-GSK3β was obtained from Active Motif (Carlsbad, Calif.). Recombinant GST-β-catenin and GST-axin were obtained from Millipore (Billerica, Mass.). The GSK313 inhibitor, SB-216763, AR-A104418 and His-GSK3β, were obtained from Sigma-Aldrich (Sigma-Aldrich, St. Louis, Mo.). L803-MTS was obtained from Calbiochem (San Diego, Calif.). GST-AKT1 was obtained from Cell Signaling (Beverly, Mass.). GST-CASK-1 (CASK fragment from 316-415aa), GST-CASK-2 (CASK fragment from 777-974aa), and GST-p25 proteins were kindly provided by Dr. B. A. Samuels. Mouse DISC1 peptidel (40-78aa: GYMRSTAGSG IGFLSPAVGMPHPSSAG LTGQQSQHSQS; SEQ ID NO: 1) and Mouse DISC1 peptide 2 (195-238aa, […] GERGEAEGCLPSREAE; SEQ ID NO: 2) were synthesized by Chi Scientific (Maynard, Mass.). • Antibodies. The primary antibodies used in this study were the following: rabbit anti-DISC1 C-terminal antibody, mouse and rabbit anti-GFP antibodies (Invitrogen, Carlsbad, Calif.); affinity purified rabbit anti-DISC1 antibody (Novus, Littleton, Colo.) for immunohistochemistry; mouse anti-FLAG and mouse anti-Actin antibody; mouse anti-GSK3β antibody, mouse anti-β-catenin antibody, mouse anti-pY216 GSK3β antibody, and mouse anti-nestin antibody (BD Biosciences, San Diego, Calif.); rabbit anti-[…] β-catenin antibody, rabbit anti-pS9 GSK3β antibody, and mouse anti-cyclin to D1 antibody (Cell Signaling); mouse anti-Dv12 antibody, mouse anti-HA antibody, mouse anti-GST antibody, mouse anti-ubiquitin antibody, and rabbit anti-β-catenin antibody (Santa Cruz, Santa Cruz, Calif.); mouse Tuj-1 antibody (BABCO, Harrisburg, Pa.); mouse anti-BrdU antibody (DakoCytomation, Glostrup, Denmark); guinea pig anti-doublecortin antibody (Chemicon, Rosemont, Ill.); chicken anti-GFP antibody (Ayes Labs, Tigard, Oreg.); rabbit anti-pS10 Histone H3 antibody (Upstate, Lake Placid, N.Y.). • Constructs. The sequences for shRNAs targeting DISC1 are as follows: control shRNA: 5′-CGGCTGAAACAAGAGTTGG-3′ (SEQ ID NO:3); DISC1 shRNA-1: 5′-GGCAAACACTGTGA AGT GC-3′ (SEQ ID NO:4); DISC1 shRNA-2: 5′-[…]-3′ (SEQ ID NO:5)(Kamiya A. et al. A schizophrenia-associated mutation of DISC1 perturbs cerebral cortex development. Nat. Cell Biol 7, 1167-78 (2005)). DISC1 shRNA-1 recognizes both rat and mouse DISC1. […]

AHPs = assay: Immunoblot of β-catenin and cyclin D1 in transduced AHPs; assay type: cell-based
Text: • Mice. Swiss Webster pregnant female mice were purchased from Taconic (Hudson, N.Y.). • Cell Culture. AHPs were kindly provided by Dr. Gage (Lie, D. C. et al. Wnt signaling to regulates adult hippocampal neurogenesis. Nature 437, 1370-5 (2005)) and cultured under conditions described previously (Palmer, T. D., Takahashi, J. & Gage, F. H. The adult rat hippocampus contains primordial neural stem cells. Mol Cell Neurosci 8, 389-404 (1997)). Primary neural progenitors were isolated from E14 mouse embryos and cultured as described previously (Sanada, K. & Tsai, L. H. G protein betagamma subunits and AGS3 control spindle orientation and asymmetric cell fate of cerebral cortical progenitors. Cell 122, 119-31 (2005)). N2a and 293T cells were cultured in DMEM medium containing 10% FBS, L-glutamine, and penicillin/streptomycin. Wnt3a expressing L cells and untransfected L cells were obtained from ATCC (Manassas, Va.). Wnt3a conditional medium was produced according to the ATCC protocol. To induce AHP differentiation, FGF2 was removed from the culture medium and 1 μM retinoic acid/1% FBS was added to the medium for 4 days. • Reagents. Recombinant Wnt3a protein was obtained from Chemicon (Rosemont, Ill.). FGF2 was obtained from PeproTech (Rocky Hill, N.J.). Recombinant GST-GSK3β was obtained from Active Motif (Carlsbad, Calif.). Recombinant GST-β-catenin and GST-axin were obtained from Millipore (Billerica, Mass.). The GSK313 inhibitor, SB-216763, AR-A104418 and His-GSK3β, were obtained from Sigma-Aldrich (Sigma-Aldrich, St. Louis, Mo.). L803-MTS was obtained from Calbiochem (San Diego, Calif.). GST-AKT1 was obtained from Cell Signaling (Beverly, Mass.). GST-CASK-1 (CASK fragment from 316-415aa), GST-CASK-2 (CASK fragment from 777-974aa), and GST-p25 proteins were kindly provided by Dr. B. A. Samuels. Mouse DISC1 peptidel (40-78aa: GYMRSTAGSG IGFLSPAVGMPHPSSAG LTGQQSQHSQS; SEQ ID NO: 1) and Mouse DISC1 peptide 2 (195-238aa, […] GERGEAEGCLPSREAE; SEQ ID NO: 2) were synthesized by Chi Scientific (Maynard, Mass.). • Antibodies. […]

GSK3β [3] = target: T1, GSK3β (Homo sapiens, UniProt P49841); assay: GSK3β SPR (surface plasmon resonance) binding assay; conditions: for percent theoretical maximal response (binding to GSK3β): concentration of 25 μM
T1 construct: GST; purchased Active Motif (Carlsbad, Calif.)
T1 sequence (P49841 whole entry): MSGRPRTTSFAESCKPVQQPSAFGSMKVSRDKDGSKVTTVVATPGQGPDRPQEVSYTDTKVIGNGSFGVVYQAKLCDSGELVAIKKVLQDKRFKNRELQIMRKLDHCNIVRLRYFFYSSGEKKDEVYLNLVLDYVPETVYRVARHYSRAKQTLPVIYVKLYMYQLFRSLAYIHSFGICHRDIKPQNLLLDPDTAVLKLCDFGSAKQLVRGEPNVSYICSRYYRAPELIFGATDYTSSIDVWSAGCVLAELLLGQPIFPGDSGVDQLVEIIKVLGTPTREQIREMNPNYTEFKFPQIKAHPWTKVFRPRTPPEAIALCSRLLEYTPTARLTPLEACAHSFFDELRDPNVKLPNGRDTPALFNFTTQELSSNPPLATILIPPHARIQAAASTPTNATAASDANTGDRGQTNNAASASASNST
Procedure: FIG. 16B is a schematic of overlapping 15-mer peptides that covered peptide 2 and a graph showing the ability of the peptides to bind to GSK3β.
Surface plasmon resonance (SPR) was used to determine whether peptide 2 directly binds to GSK3β. GSK3β SPR binding assays were carried out with peptide 1, peptide 2, the GSK3β inhibitor L803-MTS, and as a negative control, a peptide from the N-type calcium channel, CACNA1B (FIG. 6A). […] To identify the peptide 2 sequences that mediate this interaction with GSK3β, we designed overlapping 15-mer peptides that covered peptide 2 and tested their binding to GSK3β SPR (FIG. 16B).

GSK3β [4] = target: T1, GSK3β; assay: GSK3β in vitro kinase assay (β-catenin/axin phosphorylation, Y216 autophosphorylation); assay type: biochemical; conditions: for inhibition of GSK3β / inhibition of GSK3β kinase activity by peptides: in vitro kinase assay; for inhibition of GSK3β kinase activity by peptides: dose-response or comparison
Text: as §1

[5] = electroporated at E13, analyzed 3 days later

`COc1ccc(CNC(=O)Nc2ncc([N+](=O)[O-])s2)cc1` [AR-A014418] was tested, and the “TCF reporter activity in DISC1 knockdown cells” value [1] was “rescued TCF activity in DISC1 knockdown cells to control levels” and the “TCF reporter activity in DISC1 knockdown cells” value ([1]; listed as AR-A104418) was “rescues the TCF activation defect caused by DISC1 knockdown”.

For “DISC1 shRNA-2: shRNA targeting human, rat and mouse DISC1, SEQ ID NO:5, in pLentiLox 3.7 vector (GCAGGAGGTCAGCAAGGCCTTG)”, the BrdU labeling ([2]; BrdU 2 hours prior to collection) was 15.9±2.2%, the “cell cycle exit index” value ([2]; electroporated E13, BrdU at E15, collected E16) was 66.5±13.2% and the “GFP+Dcx+ cells” value ([2]; electroporated E13, sacrificed E16, SVZ) was 42.3±5.8%. The “GFP positive cells in the VZ/SVZ” value [2, 5] was 10%, the “GFP positive cells in the cortical plate” value [2, 5] was 62% and the mitotic index ([2]; pH3, electroporated E13, sacrificed E15) was 3.5±0.8%. For the same molecule, the “reduction of Cyclin D1 levels” value (AHPs) was 70% and the β-catenin levels (AHPs) was 19 % to control.

“peptide 1: Mouse DISC1 peptide, 40-78aa, SEQ ID NO: 1, synthesized by Chi Scientific (GYMRSTAGSGIGFLSPAVGMPHPSSAGLTGQQSQHSQS; listed as Mus musculus)” was tested, and the “percent theoretical maximal response (binding to GSK3β)” value (GSK3β [3]) was 62%, the “inhibition of GSK3β” value (GSK3β [4]; at 80 μM) was “did not inhibit GSK3β” and the “inhibition of GSK3β kinase activity by peptides” value (“inhibition … by peptides” below) (GSK3β [4]; no single concentration) was “did not inhibit GSK3β activity”.

In the case of “peptide 2: Mouse DISC1 peptide, 195-238aa, PADIASLPGFQDTFTSSFSFIQLSLGAAGERGEAEGCLPSREAE, SEQ ID NO: 2 (listed as Mus musculus)”, the “percent theoretical maximal response (binding to GSK3β)” value (GSK3β [3]) is reported as 197%, the “inhibition of GSK3β” value (GSK3β [4]; at 1 μM) is reported as “did not inhibit GSK3β” and the “inhibition of GSK3β” value (GSK3β [4]; at 10 μM) is reported as “inhibited GSK3β”. The “inhibition … by peptides” value (GSK3β [4]; no single concentration) was “inhibited GSK3β more potently than the commercial GSK3β peptide inhibitor, L803-MTS”, the “inhibition … by peptides” value (GSK3β [4]; no single concentration, listed as DISC1 peptide 1(195-238aa)) was “dose-dependent” and the “inhibition … by peptides” value (GSK3β [4]; no single concentration, listed as Peptide 195-238) was “inhibited GSK3β in a dose-dependent manner more potently than the commercial peptide inhibitor, L803-MTS”.

In the case of “peptide 3: 15-mer peptide that encompasses mDISC1 amino acids 211 to 225 (SFSFIQLSLGAAGER; listed as Mus musculus)”, the “percent maximal binding to GSK3β” value (GSK3β [3]; 15-mer peptide) is reported as 238%, the “binding to GSK3β” value (GSK3β [3]; result in words) is reported as “bound to GSK3β” and the “inhibition … by peptides” value (GSK3β [4]; no single concentration) is reported as “failed to inhibit GSK3β kinase activity”.

B1: DISC1 fragment 221-355: GST-tagged mouse DISC1 protein fragment, amino acids 221-355 (protein, UniProt Q811T9 221-355, looked up, fragment)
chain: AAGERGEAEGCLPSREAEPLHQRPQEMAAEASSSDRPHGDPRHLWTFSLHAAPGLADLAQVTRSSSRQSECGTVSSSSSDTGFSSQDASSAGGRGDQGGGWADAHGWHTLLREWEPMLQDYLLSNRRQLEVTSLI
modifications: GST tag
With B1 the “inhibition of GSK3β autophosphorylation (Y216)” value (GSK3β [4]; GST-DISC1 fragments at 2 μM) was “started to inhibit GSK3β autophosphorylation” and the “inhibition of GSK3β activity by DISC1 fragments” value (GSK3β [4]; no single concentration, dose dependence, rank) was “able to inhibit GSK3 activity”.
